Assay results from US20170283834A1, “Processes for Producing A Fermentation Product Using A Fermenting Organism” (Novozymes A/S, priority 2014, published 2017).

Tested on: zein
Test: Relative activity assay of protease variants (zein micro titer plate)
Assay type: biochemical
Conditions: Table 3
Description: Each well contains 200 microL of 0.05-0.1% of zein (Sigma), 0.25 mM ZnSO4 and 1% of agar in 20 mM sodium acetate buffer, pH 4.5.
Yeast clones on SC-glucose were inoculated to a well of a 96-well micro titre plate containing YPD+Zn medium and cultivated at 28° C. for 3 days. The culture supernatants were applied to a 96-well zein micro titer plate and incubated at at least 2 temperatures (ex. 60° C. and 65° C., 70° C. and 75° C., 70° C. and 80° C.) for more than 4 hours or overnight. The turbidity of zein in the plate was measured as A630 and the relative activity (higher/lower temperatures) was determined as an indicator of thermoactivity improvement. The clones with higher relative activity than the parental variant were selected and the sequence was determined.

Row | Molecule | Relative activity 75° C./65° C. | Relative activity 75° C./70° C.
1 | JTP040: protease variant of SEQ ID NO: 3: T54R/D79L/S87P (protein, listed as Thermoascus aurantiacus) MRLVASLTALVALSVPVFPAAVNVKRASSYLEITLSQVSNTLIKAVVQNTGSDELSFVHLNFFKDPAPVKKVSVYRDGSEVQFEGILSRYKSTGLSRDAFTYLAPGESVEDVFDIASTYDLTSGGPVTIRTEGVVPYATANSTDIAGYISYSSNVLTIDVDGAAAATVSKAITPLDRRTRISSCSGSRQSALTTALRNAASLANAAADAAQSGSASKFSEYFKTTSSSTRQRVAARLRAVAREASSSSSGATTYYCLDPYGYCSPNVLAYTLPSYNIIANCDIFYTYLPALTSTCHAQDQATTALHEFTHAPGVYSPGTDDLAYGYQAAMGLSSSQAVMNADTYALYANAIYLGC | 71% | –
2 | JTP042: protease variant of SEQ ID NO: 3: Q53K/D79L/S87P/I173V (protein, listed as Thermoascus aurantiacus) MRLVASLTALVALSVPVFPAAVNVKRASSYLEITLSQVSNTLIKAVVQNTGSDELSFVHLNFFKDPAPVKKVSVYRDGSEVQFEGILSRYKSTGLSRDAFTYLAPGESVEDVFDIASTYDLTSGGPVTIRTEGVVPYATANSTDIAGYISYSSNVLTIDVDGAAAATVSKAITPLDRRTRISSCSGSRQSALTTALRNAASLANAAADAAQSGSASKFSEYFKTTSSSTRKTVAARLRAVAREASSSSSGATTYYCLDPYGYCSPNVLAYTLPSYNIIANCDIFYTYLPALTSTCHAQDQATTALHEFTHAPGVYSPGTDDLAYGYQAAMGLSSSQAVMNADTYALYANAVYLGC | 108% | –
3 | JTP043: protease variant of SEQ ID NO: 3: Q53R/D79L/S87P (protein, listed as Thermoascus aurantiacus) MRLVASLTALVALSVPVFPAAVNVKRASSYLEITLSQVSNTLIKAVVQNTGSDELSFVHLNFFKDPAPVKKVSVYRDGSEVQFEGILSRYKSTGLSRDAFTYLAPGESVEDVFDIASTYDLTSGGPVTIRTEGVVPYATANSTDIAGYISYSSNVLTIDVDGAAAATVSKAITPLDRRTRISSCSGSRQSALTTALRNAASLANAAADAAQSGSASKFSEYFKTTSSSTRRTVAARLRAVAREASSSSSGATTYYCLDPYGYCSPNVLAYTLPSYNIIANCDIFYTYLPALTSTCHAQDQATTALHEFTHAPGVYSPGTDDLAYGYQAAMGLSSSQAVMNADTYALYANAIYLGC | 80% | –
4 | JTP045: protease variant of SEQ ID NO: 3: S41R/D79L/S87P (protein, listed as Thermoascus aurantiacus) MRLVASLTALVALSVPVFPAAVNVKRASSYLEITLSQVSNTLIKAVVQNTGSDELSFVHLNFFKDPAPVKKVSVYRDGSEVQFEGILSRYKSTGLSRDAFTYLAPGESVEDVFDIASTYDLTSGGPVTIRTEGVVPYATANSTDIAGYISYSSNVLTIDVDGAAAATVSKAITPLDRRTRISSCSGSRQSALTTALRNAASLANAAADAAQSGSASKFREYFKTTSSSTRQTVAARLRAVAREASSSSSGATTYYCLDPYGYCSPNVLAYTLPSYNIIANCDIFYTYLPALTSTCHAQDQATTALHEFTHAPGVYSPGTDDLAYGYQAAMGLSSSQAVMNADTYALYANAIYLGC | 82% | –
5 | JTP046: protease variant of SEQ ID NO: 3: D79L/S87P/Q158W (protein, listed as Thermoascus aurantiacus) MRLVASLTALVALSVPVFPAAVNVKRASSYLEITLSQVSNTLIKAVVQNTGSDELSFVHLNFFKDPAPVKKVSVYRDGSEVQFEGILSRYKSTGLSRDAFTYLAPGESVEDVFDIASTYDLTSGGPVTIRTEGVVPYATANSTDIAGYISYSSNVLTIDVDGAAAATVSKAITPLDRRTRISSCSGSRQSALTTALRNAASLANAAADAAQSGSASKFSEYFKTTSSSTRQTVAARLRAVAREASSSSSGATTYYCLDPYGYCSPNVLAYTLPSYNIIANCDIFYTYLPALTSTCHAQDQATTALHEFTHAPGVYSPGTDDLAYGYQAAMGLSSSWAVMNADTYALYANAIYLGC | 96% | –
6 | JTP047: protease variant of SEQ ID NO: 3: D79L/S87P/S157K (protein, listed as Thermoascus aurantiacus) MRLVASLTALVALSVPVFPAAVNVKRASSYLEITLSQVSNTLIKAVVQNTGSDELSFVHLNFFKDPAPVKKVSVYRDGSEVQFEGILSRYKSTGLSRDAFTYLAPGESVEDVFDIASTYDLTSGGPVTIRTEGVVPYATANSTDIAGYISYSSNVLTIDVDGAAAATVSKAITPLDRRTRISSCSGSRQSALTTALRNAASLANAAADAAQSGSASKFSEYFKTTSSSTRQTVAARLRAVAREASSSSSGATTYYCLDPYGYCSPNVLAYTLPSYNIIANCDIFYTYLPALTSTCHAQDQATTALHEFTHAPGVYSPGTDDLAYGYQAAMGLSSKQAVMNADTYALYANAIYLGC | 85% | –
7 | JTP048: protease variant of SEQ ID NO: 3: D79L/S87P/D104R (protein, listed as Thermoascus aurantiacus) MRLVASLTALVALSVPVFPAAVNVKRASSYLEITLSQVSNTLIKAVVQNTGSDELSFVHLNFFKDPAPVKKVSVYRDGSEVQFEGILSRYKSTGLSRDAFTYLAPGESVEDVFDIASTYDLTSGGPVTIRTEGVVPYATANSTDIAGYISYSSNVLTIDVDGAAAATVSKAITPLDRRTRISSCSGSRQSALTTALRNAASLANAAADAAQSGSASKFSEYFKTTSSSTRQTVAARLRAVAREASSSSSGATTYYCLDPYGYCSPNVLAYTLPSYNIIANCRIFYTYLPALTSTCHAQDQATTALHEFTHAPGVYSPGTDDLAYGYQAAMGLSSSQAVMNADTYALYANAIYLGC | 88% | –
8 | JTP051: protease variant of SEQ ID NO: 3: S41R/D79L/S87P/A112P/D142L (protein, listed as Thermoascus aurantiacus) MRLVASLTALVALSVPVFPAAVNVKRASSYLEITLSQVSNTLIKAVVQNTGSDELSFVHLNFFKDPAPVKKVSVYRDGSEVQFEGILSRYKSTGLSRDAFTYLAPGESVEDVFDIASTYDLTSGGPVTIRTEGVVPYATANSTDIAGYISYSSNVLTIDVDGAAAATVSKAITPLDRRTRISSCSGSRQSALTTALRNAASLANAAADAAQSGSASKFREYFKTTSSSTRQTVAARLRAVAREASSSSSGATTYYCLDPYGYCSPNVLAYTLPSYNIIANCDIFYTYLPPLTSTCHAQDQATTALHEFTHAPGVYSPGTLDLAYGYQAAMGLSSSQAVMNADTYALYANAIYLGC | – | 102%
9 | JTP052: protease variant of SEQ ID NO: 3: D79L/S87P/A112P/D142L/S157K (protein, listed as Thermoascus aurantiacus) MRLVASLTALVALSVPVFPAAVNVKRASSYLEITLSQVSNTLIKAVVQNTGSDELSFVHLNFFKDPAPVKKVSVYRDGSEVQFEGILSRYKSTGLSRDAFTYLAPGESVEDVFDIASTYDLTSGGPVTIRTEGVVPYATANSTDIAGYISYSSNVLTIDVDGAAAATVSKAITPLDRRTRISSCSGSRQSALTTALRNAASLANAAADAAQSGSASKFSEYFKTTSSSTRQTVAARLRAVAREASSSSSGATTYYCLDPYGYCSPNVLAYTLPSYNIIANCDIFYTYLPPLTSTCHAQDQATTALHEFTHAPGVYSPGTLDLAYGYQAAMGLSSKQAVMNADTYALYANAIYLGC | – | 111%
10 | JTP053: protease variant of SEQ ID NO: 3: S41R/D79L/S87P/A112P/D142L/S157K (protein, listed as Thermoascus aurantiacus) MRLVASLTALVALSVPVFPAAVNVKRASSYLEITLSQVSNTLIKAVVQNTGSDELSFVHLNFFKDPAPVKKVSVYRDGSEVQFEGILSRYKSTGLSRDAFTYLAPGESVEDVFDIASTYDLTSGGPVTIRTEGVVPYATANSTDIAGYISYSSNVLTIDVDGAAAATVSKAITPLDRRTRISSCSGSRQSALTTALRNAASLANAAADAAQSGSASKFREYFKTTSSSTRQTVAARLRAVAREASSSSSGATTYYCLDPYGYCSPNVLAYTLPSYNIIANCDIFYTYLPPLTSTCHAQDQATTALHEFTHAPGVYSPGTLDLAYGYQAAMGLSSKQAVMNADTYALYANAIYLGC | – | 113%
11 | JTP054: protease variant of SEQ ID NO: 3: ΔS5/D79L/S87P (protein, listed as Thermoascus aurantiacus) MRLVASLTALVALSVPVFPAAVNVKRASSYLEITLSQVSNTLIKAVVQNTGSDELSFVHLNFFKDPAPVKKVSVYRDGSEVQFEGILSRYKSTGLSRDAFTYLAPGESVEDVFDIASTYDLTSGGPVTIRTEGVVPYATANSTDIAGYISYSSNVLTIDVDGAAAATVSKAITPLDRRTRISCSGSRQSALTTALRNAASLANAAADAAQSGSASKFSEYFKTTSSSTRQTVAARLRAVAREASSSSSGATTYYCLDPYGYCSPNVLAYTLPSYNIIANCDIFYTYLPALTSTCHAQDQATTALHEFTHAPGVYSPGTDDLAYGYQAAMGLSSSQAVMNADTYALYANAIYLGC | – | 92%
12 | JTP055: protease variant of SEQ ID NO: 3: ΔG8/D79L/S87P (protein, listed as Thermoascus aurantiacus) MRLVASLTALVALSVPVFPAAVNVKRASSYLEITLSQVSNTLIKAVVQNTGSDELSFVHLNFFKDPAPVKKVSVYRDGSEVQFEGILSRYKSTGLSRDAFTYLAPGESVEDVFDIASTYDLTSGGPVTIRTEGVVPYATANSTDIAGYISYSSNVLTIDVDGAAAATVSKAITPLDRRTRISSCSSRQSALTTALRNAASLANAAADAAQSGSASKFSEYFKTTSSSTRQTVAARLRAVAREASSSSSGATTYYCLDPYGYCSPNVLAYTLPSYNIIANCDIFYTYLPALTSTCHAQDQATTALHEFTHAPGVYSPGTDDLAYGYQAAMGLSSSQAVMNADTYALYANAIYLGC | – | 95%
13 | JTP059: protease variant of SEQ ID NO: 3: C6R/D79L/S87P (protein, listed as Thermoascus aurantiacus) MRLVASLTALVALSVPVFPAAVNVKRASSYLEITLSQVSNTLIKAVVQNTGSDELSFVHLNFFKDPAPVKKVSVYRDGSEVQFEGILSRYKSTGLSRDAFTYLAPGESVEDVFDIASTYDLTSGGPVTIRTEGVVPYATANSTDIAGYISYSSNVLTIDVDGAAAATVSKAITPLDRRTRISSRSGSRQSALTTALRNAASLANAAADAAQSGSASKFSEYFKTTSSSTRQTVAARLRAVAREASSSSSGATTYYCLDPYGYCSPNVLAYTLPSYNIIANCDIFYTYLPALTSTCHAQDQATTALHEFTHAPGVYSPGTDDLAYGYQAAMGLSSSQAVMNADTYALYANAIYLGC | – | 92%
